Reference: article PMC12152837, “Semaglutide Aggregates into Oligomeric Micelles and Short Fibrils in Aqueous Solution” (Biomacromolecules, 2025)
Several values for one entry are separate records, joined by “and”; a condition that tells them apart may be missing. Equal values may be shown once.

Legend:
[1] = pH of aqueous solutions (pH strips); format: physicochemical
Procedure: (§1) Semaglutide powder was weighed, and the samples were prepared in glass vials using ultrapure water. To monitor the aggregation and stability, some samples were left to age up to 40 days in the fridge at 4 °C, protected from the light. The pH was observed just after preparation and after 40 days of incubation at 4 °C using pH strips due to the small volume of sample available. No evidence of microemulsion formation was observed. ^20 pH values were recorded as follows: 1 wt % fresh pH 5.5, 1 wt % aged: pH 7, 0.1 wt % fresh: pH 6.5, 0.1 wt % aged: pH 7. It is notable that the pH crosses the pK a of the N-terminal histidine (pK a = 6 is the accepted value for isolated histidine) for the more concentrated solution upon aging.

[2] = tested on: Caco-2 cells; assay: Transepithelial electrical resistance (TEER) transwell permeability assay; format: cell-based; details: Caco-2 monolayer on transwell, DMEM without serum, 37 °C, pH 7.4, duplicate wells, relative to DMEM control
Procedure: As a model of the gut epithelium, 1.5 × 10^5 Caco-2 (ATCC, EUA) immortalized colorectal adenocarcinoma cells were seeded into 12 mm Millicell hanging cell culture transwells, with a PET lower membrane permeated by pores 0.4 μm in diameter. The transwells were then inserted into a 12-well plate to create a bicameral chamber system separated by the transwell PET membrane. The cells were cultivated until reaching confluence in DMEM supplemented with 10% FBS for at least 3 weeks before starting the TEER assay in order to form semipermeable membranes composed of Caco-2 cells separating the two chambers. For the TEER assay, a multimeter (TLC Electrical, UK). The microelectrodes were immobilized in a chopstick pattern and coated in carbon conductive ink to prevent corrosion, similar to previous reports using low-cost Volt-ohmeters for TEER. −
The resistance for the Caco-2 membrane tissue (R tissue) is measured in Ohms (Ω) and defined as Rtissue=RTotal−RBlank
This represents the total resistance of the system containing the semipermeable membranes minus the initial resistance from the cell containing only media or PBS. […]
The area calculated for the transwells used in this assay is M Area (cm^2) = 1.12 cm^2. […] The TEER was calculated and is reported as % values relative to controls incubated without semaglutide.

[3] = Cryogenic-TEM imaging of aggregates; format: physicochemical
Procedure: as §1, with “To monitor the aggregation and stability, some samples were left to age up to 40 days in the fridge at 4 °C, protected from the light.” left out
Imaging was carried out using a field emission cryo-electron microscope (JEOL JEM-3200FSC), operating at 200 kV. Images were taken in bright field mode and using zero loss energy filtering (omega type) with a slit width of 20 eV. Micrographs were recorded using a Gatan Ultrascan 4000 CCD camera. The specimen temperature was maintained at −187 °C during the imaging. Vitrified specimens were prepared by using an automated FEI Vitrobot device using Quantifoil 3.5/1 holey carbon copper grids with a hole size of 3.5 μm. Just prior to use, grids were plasma cleaned using a Gatan Solarus 9500 plasma cleaner and then transferred into the environmental chamber of a FEI Vitrobot at room temperature and 100% humidity. Thereafter, 3 μL of sample solution was applied on the grid, and it was blotted twice for 5 s and then vitrified in a 1/1 mixture of liquid ethane and propane at a temperature of −180 °C. The grids with vitrified sample solution were maintained at liquid nitrogen temperature and then cryo-transferred to the microscope.

[4] = Small-angle X-ray scattering (SAXS) of aggregates in water; format: physicochemical; details: for effective charge modulus per micelle z eff: Hayter–Penfold structure factor fit; for micelle inner core radius Ri / micelle outer radius Ro ± Gaussian polydispersity: core-shell sphere form factor
Procedure: as §1
SAXS experiments were performed on beamline B21 at Diamond Light Source (Harwell, UK) and SWING at synchrotron SOLEIL (Gif-sur-Yvette, France) and on the labSAXS instrument at Diamond Light Source.
On B21, the sample solutions were loaded into the 96-well plate of an EMBL BioSAXS robot and then injected via an automated sample exchanger into a quartz capillary (1.8 mm internal diameter) in the X-ray beam. The quartz capillary was enclosed in a vacuum chamber to avoid parasitic scattering. After the sample was injected into the capillary and reached the X-ray beam, the flow was stopped during the SAXS data acquisition. Beamline B21 operates with fixed camera length (3.9 m) and fixed energy (12.4 keV). The images were captured by using a PILATUS 2 M detector. Data processing was performed using the dedicated beamline software ScÅtter. […]
SAXS experiments (extending to higher q) were also performed using a lab-based Xeuss 3.0 (Xenocs, France) instrument at Diamond Light Source, equipped with a liquid gallium MetalJet X-ray source (Excillum, Sweden) with an energy of 9.24 keV, corresponding to a wavelength of 1.34 Å. SAXS patterns were measured for 28800 s with an incident X-ray photon flux of roughly 4.06 × 10^6 ph/s on an EIGER2 R 1M detector (Dectris, Switzerland), and the sample-to-detector distance was set to 315 mm, giving a q range of 0.17–1.1 nm^–1. The beam size is roughly 0.4 × […] on the sample. The sample environment was a custom-designed low-noise flow-through cell having a thickness of roughly 0.7 mm and an area of 1.1 mm × 1.1 mm. The window material is silicon nitride. Silver behenate (layer spacing, d = 58.38 Å) was used to calibrate the SAXS data. SAXS images were analyzed using the IDL-based AXcess software package or software DAWN.
The association number of the micelle can be obtained in a model-independent fashion from the forward scattering intensity of the SAXS data in dilute solution. , The measured synchrotron SAXS data presented here is in absolute units (cm^–1) and the forward scattering (at q = 0) can be written as 1 I(0)=cmicMmic[r0vp(ρl−ρ0)]^2/NA Here, c mic is the concentration of micelles, M mic is the micelle molar mass, r 0 is the classical electron radius [0.28179 × 10^–12 cm e ^–1], v p is the partial specific volume, and ρl and ρ0 represent the lipopeptide and solvent (water) electron density. […] Rearranging eq gives 2 Mmic=I(0)NA/cmic[r0vp(ρl−ρ0)]^2 […]
Table S1. Fit parameters to the SAXS data in Fig.2b using a core-shell sphere form form factor with the Hayter-Penfold RMSA structure factor.1 The monodisperse approximation to factor the form and structure factors of isotropic solutions of centrosymmetric particles is assumed. Fitting performed using SASfit.2-3 […]
(Diamond synch.) (Diamond synch.) (Diamond synch.) (Lab SAXS)b […]
Key: Core-Shell Sphere Form factor: Ro: outer radius (σc Gaussian polydispersity in R0), Ri: inner radius, µ: ratio of scattering contrast of inner core/outer core, η: scattering contrast of core. Structure factor: RHS, hard sphere radius, φ: effective volume fraction zeff: effective charge modulus, I: ionic strength (temperature fixed at T = 293 K).
Gaussian coils: Rg: radius of gyration, Ic: intensity. Background: BG (constant). […]

[5] = ESI-MS integrity and appearance of solution after aging; format: physicochemical
Procedure: Semaglutide was purchased from Bioserv (Calibre Scientific, Rotherham, UK). The purity by HPLC was >95%, and it was supplied in nonsalt (base) form. The molar mass is M = 4115.7 g mol^–1 (4113.6 g mol^–1 expected). Purity (by HPLC) is >98%.
as §1

[6] = Nile red fluorescence assay of critical micelle concentration; format: physicochemical; details: 45-day aged sample in water, stored at 4 °C; 5 μM Nile red, λexc 550 nm, peak fluorescence intensity at 635 nm versus concentration
Procedure: Fluoroscence of tryptophan in semaglutide was excited at λexc= 295 nm, and fluorescence emission spectra were measured using a Cary Eclipse spectrofluorometer (Agilent, Didcot, UK) with excitation and emission slits of 5 nm. The spectra were recorded from 300 to 600 nm. The temperature was maintained at 20 °C during the measurements. This protocol was performed using fresh Semaglutide samples and then repeated using the same samples stored at 4 °C for 40 days, protected from the light. To determine the critical aggregation concentration (CAC) of semaglutide using Nile red, Semaglutide samples (45-day aged) were prepared in 5 μM of Nile red. The wavelength for excitation was set at λexc = 550 nm with 5 nm windows, and spectra were collected from 570 to 750 nm.
SI Fig.S13. Nile red fluorescence assay of critical micelle concentration (CMC) for a
45-day aged sample. (a) Plot of peak fluorescence intensity (l = 635 nm) versus
concentration, (b) Original fluorescence spectra.
Fluorescence Intensity (l635 nm)
Fluorescence intensity / arb. units […]

[7] = 0.5 wt % in water, aged 40 days, Diamond synchrotron
[8] = 0.5 wt %, aged 40 days, Diamond synchrotron, fixed for the fits
[9] = 1 wt % in water, aged 40 days, Diamond synchrotron
[10] = 1 wt %, aged 40 days, Diamond synchrotron, fixed for the fits

Question: Which pH of solution ([1]; 0.1 wt % in ultrapure water, aged 40 days at 4 °C) does the source give for Semaglutide here?
Answer: 7

Question: And the pH of solution ([1]; 0.1 wt % in ultrapure water, fresh)?
Answer: 6.5

Question: What about the pH of solution ([1]; 1 wt % in ultrapure water, aged 40 days at 4 °C) of the same substance?
Answer: 7

Question: What about the pH of solution ([1]; 1 wt % in ultrapure water, fresh) of the same substance?
Answer: 5.5

Question: What about the “TEER, % of the initial TEER” value ([2]; aged (40 days, 4 °C) semaglutide 0.02 wt %, after 2–4 h) of the same substance?
Answer: around 90%

Question: And the “TEER, % of the initial TEER” value ([2]; fresh semaglutide 0.02 wt %, after 30 min)?
Answer: around 80%

Question: And the “diameter of micelle-like structures” value ([3]; 1 wt % in water, aged 40 days at 4 °C, cryo-TEM)?
Answer: < 5 nm

Question: What about the “morphology by cryo-TEM, further aging” value ([3]; 1 wt % sample aged 79 days, compared to the 40-day aged sample) of the same substance?
Answer: no further change in morphology

Question: And the “morphology by cryo-TEM” value ([3]; freshly dissolved 1 wt % solution in water)?
Answer: irregular clustered morphology

Question: And the “radius of gyration Rg (Gaussian coils)” value ([4]; 0.1 wt % in water, aged 40 days, Diamond synchrotron)?
Answer: 1.57 nm

Question: And the “micelle molar mass M mic” value ([4]; 0.1 wt % in water, aged 40 days, from SAXS forward scattering I(0) = 0.0025 cm^–1)?
Answer: 9111 g mol^–1

Question: What about the association number p ([4]; 0.1 wt % in water, aged 40 days, from SAXS forward scattering I(0), p = Mmic/Mmol) of the same substance?
Answer: ≈ 2.2

Question: What about the “hard sphere radii R HS from the structure factor” value ([4]; 0.5 and 1 wt % aged solutions) of the same substance?
Answer: 2.23–2.54 nm

Question: And the “hard sphere radius RHS” value [4, 7]?
Answer: 2.23 nm

Question: What about the “effective charge modulus per micelle z eff” value [4, 7] of the same substance?
Answer: 9.81

Question: And the “micelle inner core radius Ri” value [4, 8]?
Answer: 1.50 nm

Question: What about the “micelle outer radius Ro ± Gaussian polydispersity” value [4, 8] of the same substance?
Answer: 2.31±0.59 nm

Question: And the “hard sphere radius RHS” value [4, 9]?
Answer: 2.54 nm

Question: And the “effective charge modulus per micelle z eff” value [4, 9]?
Answer: 10.8

Question: And the association number p ([4]; 1 wt % in water, aged, rough estimate from the ratio of low-q intensity for 1 and 0.1 wt %)?
Answer: 12–15

Question: What about the “hard sphere radius RHS” value ([4]; 1 wt %, Lab SAXS) of the same substance?
Answer: 2.54 nm

Question: And the “radius of gyration Rg (additional Gaussian coil term)” value ([4]; 1 wt %, Lab SAXS, term for high q scattering)?
Answer: 0.8 nm

Question: What about the “effective charge modulus per micelle z eff” value ([4]; 1 wt %, Lab SAXS) of the same substance?
Answer: 9.00

Question: And the “micelle inner core radius Ri” value ([4]; 1 wt %, Lab SAXS)?
Answer: 1.50 nm

Question: What about the “micelle outer radius Ro ± Gaussian polydispersity” value ([4]; 1 wt %, Lab SAXS) of the same substance?
Answer: 2.31±0.59 nm

Question: What about the “micelle inner core radius Ri” value [4, 10] of the same substance?
Answer: 1.50 nm

Question: And the “micelle outer radius Ro ± Gaussian polydispersity” value [4, 10]?
Answer: 2.31±0.59 nm

Question: What about the micelle radius ([4]; as determined from cryo-TEM and SAXS, aged solutions at sufficiently high concentration) of the same substance?
Answer: 2 nm

Question: And the “chemical stability in solution (degradation)” value ([5]; aqueous solution, 40 days of aging at 4 °C protected from light, ESI-MS)?
Answer: No evidence for degradation in solution was observed

Question: And the appearance of solutions ([5]; solutions in pure water prepared in glass vials)?
Answer: transparent

Question: What about the “critical micelle concentration (CMC)” value [6] of the same substance?
Answer: 0.06 wt % and 0.06 ± 0.005 wt %
